Assay results from paper PMC6235398, “Unveiling the structural features that determine the dual methyltransferase activities of Streptococcus pneumoniae RlmCD”.

Legend:
RlmCD 1-454 E443Q [1] = target: T1, RlmCD 1-454 E443Q (Streptococcus pneumoniae, UniProt Q97R12 1-454, E443Q); assay: X-ray crystallography; SAH (SAM added); covalent C408-U747; EMSA: 20 mM Tris-HCl pH 8.0, 250 mM NaCl, 1 mM MgCl2, 0.5 uM FAM-RNA, 5 uM SAH, 0-5 uM protein, 37 C 30 min; 10% native PAGE on ice; details: protein: recombinant; tags: 8xHis-SUMO removed by ULP1; single strand
RlmCD Q283A = RlmCD Q283A (Streptococcus pneumoniae, UniProt Q97R12 1-543, Q283A); assay: EMSA; 5 uM SAH; not severely affected vs WT; EMSA: 20 mM Tris-HCl pH 8.0, 250 mM NaCl, 1 mM MgCl2, 0.5 uM FAM-RNA, 5 uM SAH, 0-5 uM protein, 37 C 30 min; 10% native PAGE on ice; details: protein: recombinant, tags: 8xHis-SUMO removed by ULP1, label: 5'-FAM
RlmCD D381A = RlmCD D381A (Streptococcus pneumoniae, UniProt Q97R12 1-543, D381A); assay: as above; details: protein: recombinant, tags: 8xHis-SUMO removed by ULP1, label: 5'-FAM
RlmCD F145A = RlmCD F145A (Streptococcus pneumoniae, UniProt Q97R12 1-543, F145A); assay: EMSA; 5 uM SAH; almost no effect vs WT; EMSA: 20 mM Tris-HCl pH 8.0, 250 mM NaCl, 1 mM MgCl2, 0.5 uM FAM-RNA, 5 uM SAH, 0-5 uM protein, 37 C 30 min; 10% native PAGE on ice; details: protein: recombinant; tags: 8xHis-SUMO removed by ULP1; label: 5'-FAM; 5' single strand with 3' hairpin
RlmCD WT = RlmCD WT (Streptococcus pneumoniae, UniProt Q97R12 1-543); assay: EMSA; 5 uM SAH; two shifted bands; EMSA: 20 mM Tris-HCl pH 8.0, 250 mM NaCl, 1 mM MgCl2, 0.5 uM FAM-RNA, 5 uM SAH, 0-5 uM protein, 37 C 30 min; 10% native PAGE on ice; details: protein: recombinant; tags: 8xHis-SUMO removed by ULP1; label: 5'-FAM; 5' single strand with 3' hairpin
RlmCD 1-454 E443Q [2] = target: T1, RlmCD 1-454 E443Q; assay: X-ray crystallography; SAH (SAM added); covalent C408-U747; space group P1, two complexes per asymmetric unit; EMSA: 20 mM Tris-HCl pH 8.0, 250 mM NaCl, 1 mM MgCl2, 0.5 uM FAM-RNA, 5 uM SAH, 0-5 uM protein, 37 C 30 min; 10% native PAGE on ice; details: protein: recombinant; tags: 8xHis-SUMO removed by ULP1; hairpin, 2 bp stem (743-754, 744-753)
RlmCD 1-454 E443Q [3] = target: T1, RlmCD 1-454 E443Q; assay: X-ray crystallography; SAH (SAM added); covalent C408-U1939; 3.10 A; EMSA: 20 mM Tris-HCl pH 8.0, 250 mM NaCl, 1 mM MgCl2, 0.5 uM FAM-RNA, 5 uM SAH, 0-5 uM protein, 37 C 30 min; 10% native PAGE on ice; details: protein: recombinant; tags: 8xHis-SUMO removed by ULP1; single strand
[4] = hairpin, 2 bp stem (743-754, 744-753)
[5] = 5' single strand with 3' hairpin

## GUUGAAAA (ssRNA, m5 at U747 formed in crystal, covalent to C408) [U747L]
RlmCD 1-454 E443Q [1]
  binding result: binds

## CCGUUGAAAAGG (structured_RNA) [FAM-U747SL]
RlmCD Q283A; [4]
  binding result: binds
RlmCD D381A; [4]
  binding result: binds

## GCGAAAUUCCUUGUCGGGUAAGUUCCGACC (structured_RNA) [FAM-U1939 30-nt]
RlmCD Q283A; [5]
  binding result: binds
RlmCD D381A; [5]
  binding result: binds
RlmCD F145A
  binding result: binds
RlmCD WT
  binding result: binds

## CCGUUGAAAAGG (structured_RNA, m5 at U747 formed in crystal, covalent to C408) [U747SL]
RlmCD 1-454 E443Q [2]
  binding result: binds

## AAAUUCCU (ssRNA, m5 at U1939 formed in crystal, covalent to C408) [U1939L]
RlmCD 1-454 E443Q [3]
  binding result: binds
